Test results from the RNAGym collection of RNA variant scans (doi:10.7554/elife.80360).

B1: HDV Ribozyme (parent)
chain: GGCCGGCAUGGUCCCAGCCUCCUCGCUGGCGCCGGCUGGGCAACAUUCCGAGGGGACCGUCCCCUCGGUAAUGGCGAAUGGGACCCA

Variants of: B1
Test: self-cleavage, relative activity (ratio to wild type); higher = more cleavage; co-transcriptional

Going from GGCCGGCAUGGUCCCAGCCUCCUCGCUGGCGCCGGCUGGGCAACGUUCCGAGGGGACCGCCCCCUCGGUAAUGGCGAAUGGGACCCA to GGCCGGCAUGGUCCCAGCCUCCUCGCUGGCGCCGGCUGGGCAACUUUCCGAGGGGACCGUCCCUUCGGUAAUGGCGAAUGGGACCCA, the self-cleavage falls from 0.831 to 0.764.

Going from GGCCGGCAUGGUCCCAGCCUCCUCGCUGGCGCCGGCUGGGCAACUUUCCGAGGGGACCGUCCCAUCGGUAAUGGCGAAUGGGACCCA to GGCCGGCAUGGUCCCAGCCUCCUCGCUGGCGCCGGCUGGGCAACUUUCCGAGGGGACCGUCCCCUCGGUUAUGGCGAAUGGGACCCA, the self-cleavage rises from 0.882 to 0.989.

Compared with GGCCGGCAUGGUCCCAGCCUCCUCGCUGGCGCCGGCUGGGCAACUUUCCGAGGGGACCGUCUCCUCGGUAAUGGCGAAUGGGACCCA, GGCCGGCAUGGUCCCAGCCUCCUCGCUGGCGCCGGCUGGGCAACUUUCCGAGGGGACCGUCACCUCGGUAAUGGCGAAUGGGACCCA is lower in self-cleavage: 0.923 for the first, 0.791 for the second.

Compared with GGCCGGCAUGGUCCCAGCCUCCUCGCUGGCGCCGGCUGGGCAACGUUCCGAGGGGACCGUCCCCUCGGUAAGGGCGAAUGGGACCCA, GGCCGGCAUGGUCCCAGCCUCCUCGCUGGCGCCGGCUGGGCAACGUUCCGAGGGGACCGUCCCCUCGCUAAUGGCGAAUGGGACCCA is higher in self-cleavage: 0.68 for the first, 0.767 for the second.

First: GGCCGGCAUGGUCCCAGCCUCCUCGCUGGCGCCGGCUGGGCAACGUUCCGAGGGGACCGUCCCCUCGGUAAUGUCGAAUGGGACCCA
Second: GGCCGGCAUGGUCCCAGCCUCCUCGCUGGCGCCGGCUGGGCAACUUUCCGAGGGGACCGUCCCCUCGGUAAUGGCGAGUGGGACCCA
The self-cleavage of the first is lower: 0.543 for the first, 0.571 for the second.

First: GGCCGGCAUGGUCCCAGCCUCCUCGCUGGCGCCGGCUGGGCAACGUUCCGAGGGGACCGUCCCCUCCGUAAUGGCGAAUGGGACCCA
Second: GGCCGGCAUGGUCCCAGCCUCCUCGCUGGCGCCGGCUGGGCAACGUUCCGAGGGGACCGUCCCCUCGGUAAUGGUGAAUGGGACCCA
The self-cleavage of the first is higher: 0.54 for the first, 0.208 for the second.

Going from GGCCGGCAUGGUCCCAGCCUCCUCGCUGGCGCCGGCUGGGCAACGUUCCGAGGGGACCGUCCCCUCGGUAAUGGAGAAUGGGACCCA to GGCCGGCAUGGUCCCAGCCUCCUCGCUGGCGCCGGCUGGGCAACGUUCCGAGGGGACCGUCCCCUCGGUAAUGGGGAAUGGGACCCA, the self-cleavage falls from 0.249 to 0.0536.

Compared with GGCCGGCAUGGUCCCAGCCUCCUCGCUGGCGCCGGCUGGGCAACGUUCCGAGGGGACCGUCCCCUCGGUAAUGGCGAAUGGCACCCA, GGCCGGCAUGGUCCCAGCCUCCUCGCUGGCGCCGGCUGGGCAACGUUCCGAGGGGACCGUCCCCUCGGUAAUGGCGAAUGGAACCCA is higher in self-cleavage: 0.391 for the first, 0.415 for the second.

First: GGCCGGCAUGGUCCCAGCCUCCUCGCUGGCGCCGGCUGGGCAACGUUCCGAGGGGACCGUCCCCUCGGUAAUCGCGAAUGGGACCCA
Second: GGCCGGCAUGGUCCCAGCCUCCUCGCUGGCGCCGGCUGGGCAACGUUCCGAGGGGACCGUCCCCUCGGUAAUUGCGAAUGGGACCCA
The self-cleavage of the first is lower: 0.388 for the first, 0.415 for the second.

Going from GGCCGGCAUGGUCCCAGCCUCCUCGCUGGCGCCGGCUGGGCAACUUUCCGAGGGGACCGUUCCCUCGGUAAUGGCGAAUGGGACCCA to GGCCGGCAUGGUCCCAGCCUCCUCGCUGGCGCCGGCUGGGCAACGUUCCGAGGGGACCGUCGCCUCGGUAAUGGCGAAUGGGACCCA, the self-cleavage falls from 0.876 to 0.587.

First: GGCCGGCAUGGUCCCAGCCUCCUCGCUGGCGCCGGCUGGGCAACUUUCCGAGGGGACCGUCCCCUCGGUAAUGGCGAAUGGGUCCCA
Second: GGCCGGCAUGGUCCCAGCCUCCUCGCUGGCGCCGGCUGGGCAACUUUCCGAGGGGACCGUCCCCUCGGUAAUGGCGAAUGGGCCCCA
The self-cleavage of the first is higher: 0.128 for the first, 0.0875 for the second.

First: GGCCGGCAUGGUCCCAGCCUCCUCGCUGGCGCCGGCUGGGCAACGUUCCGAGGGGACCGUCCCCUCGGUAAUGGCGAAAGGGACCCA
Second: GGCCGGCAUGGUCCCAGCCUCCUCGCUGGCGCCGGCUGGGCAACGUUCCGAGGGGACCGUCCCCUCGGUAAUGGCGAACGGGACCCA
The self-cleavage of the first is higher: 0.755 for the first, 0.674 for the second.

Going from GGCCGGCAUGGUCCCAGCCUCCUCGCUGGCGCCGGCUGGGCAACUUUCCGAGGGGACCGUCCCCUCGGUAAUGGGGAAUGGGACCCA to GGCCGGCAUGGUCCCAGCCUCCUCGCUGGCGCCGGCUGGGCAACUUUCCGAGGGGACCGUCCCCUCGGUAAUGGAGAAUGGGACCCA, the self-cleavage rises from 0.133 to 0.277.

Going from GGCCGGCAUGGUCCCAGCCUCCUCGCUGGCGCCGGCUGGGCAACGUUCCGAGGGGACCGUCCCUUCGGUAAUGGCGAAUGGGACCCA to GGCCGGCAUGGUCCCAGCCUCCUCGCUGGCGCCGGCUGGGCAACGUUCCGAGGGGACCGUCCCGUCGGUAAUGGCGAAUGGGACCCA, the self-cleavage falls from 0.889 to 0.591.

Compared with GGCCGGCAUGGUCCCAGCCUCCUCGCUGGCGCCGGCUGGGCAACGUUCCGAGGGGACCGUCCCCUCGGUAAUGGCGAAUGGGACCGA, GGCCGGCAUGGUCCCAGCCUCCUCGCUGGCGCCGGCUGGGCAACGUUCCGAGGGGACCGUCCCCUCGGUAAUGGCGAAUGGGACCAA is lower in self-cleavage: 0.95 for the first, 0.639 for the second.

Going from GGCCGGCAUGGUCCCAGCCUCCUCGCUGGCGCCGGCUGGGCAACUUUCGGAGGGGACCGUCCCCUCGGUAAUGGCGAAUGGGACCCA to GGCCGGCAUGGUCCCAGCCUCCUCGCUGGCGCCGGCUGGGCAACUUUCAGAGGGGACCGUCCCCUCGGUAAUGGCGAAUGGGACCCA, the self-cleavage rises from 0.458 to 0.748.
